{
  "source": "paper PMC10998830",
  "key": {"[1]": {"test_system": "Nc1ncnc2c1ncn2[C@@H]1O[C@H](COP(=O)(O)OP(=O)(O)OP(=O)(O)O)[C@@H](O)[C@H]1O", "test": "purified protein, by the assay type", "details": "25.0 °C", "description": "(§1) Kinetics and thermal denaturation data were analysed by the nonlinear regression function of SigmaPlot 14.0 (SPSS Inc.). Thermal denaturation data were fitted to Eq. (1). Substrate saturation curves at a fixed concentration of the co-substrate were fitted to Eq. (2). Initial rate data at varying concentrations of HisZ were fitted to Eq. (3). The concentration of ATPPRT at any concentration of AbHisGS and AbHisZ was calculated according to Eq. (4). Histidine dose-response data were fitted to Eq. (5). Single-turnover data with WT-AbATPPRT isotopologues were fitted to Eq. (6). Plots of kcat ratios against relative viscosity were fitted to Eq. (7). Temperature-rate profile for AbHisGS was fitted to Eq. (8). Single-turnover data with R70A-AbATPPRT isotopologues were fitted to Eq. (9). In Eqs. […] While kcats for [^13C,^15N]AbHisGS and [^2H,^13C,^15N]AbHisGS are marginally lower than for unlabelled AbHisGS and [^15N]AbHisGS, the overlapping nature of most data points in Fig. 1c disagrees with distinguishable heavy-enzyme kinetic isotope effects on kcat (^HEkcat). […] This was further probed by pre-steady-state kinetics under multiple-turnover conditions. The AbHisGS reaction had been shown not to have a burst of product formation, which is reproduced here for unlabelled AbHisGS, whose traces overlap with those for [^2H,^13C,^15N]AbHisGS (Supplementary Fig. 5). S5 Supplementary Figure 4 Substrate saturation curves for unlabelled AbATPPRT with AbHisGS purified from cultures grown in M9 and M9 with high cell density compared with previously published data (reproduced here) for unlabelled AbATPPRT with AbHisGS purified from cultures grown in LB. For the M9 and M9 high cell density curves, all data points are shown for two independent measurements, except for the previously published LB curves, where data are the mean of two independent measurements. Lines are best fit of the data to equation (2): solid line for M9 high cell density curves, long-dashed line for M9 curves, and short-dashed line for previously published LB curves. Supplementary Figure 5 Rapid kinetics of PRATP formation at 25 °C by unlabelled AbHisGS and [2H,13C,15N]AbHisGS under multiple-turnover conditions. All traces are shown for eight replicates with each isotopologue."}, "[2]": {"test_system": "O=P(O)(O)OC[C@H]1O[C@H](OP(=O)(O)OP(=O)(O)O)[C@H](O)[C@@H]1O", "test": "purified protein, by the assay type", "details": "25.0 °C", "description": "as §1"}},
  "note": "Where “and” joins values, the source holds several entries; their conditions need not be identical. Equal entries are not always repeated.",
  "data": [
    {"substance": "AbHisGS (Acinetobacter baumannii ACICU)", "values": [
      {"measurement": "Km", "setting": "[1]", "value": "0.9 ± 0.1 mM and 0.8 ± 0.1 mM and 0.59 ± 0.03 mM"},
      {"measurement": "kcat", "setting": "[1]", "value": "0.38 s⁻¹ and 0.34 s⁻¹"},
      {"measurement": "kcat/Km", "setting": "[1]", "value": "420 M⁻¹ s⁻¹ and 580 M⁻¹ s⁻¹"},
      {"measurement": "Km", "setting": "[2]", "value": "0.54 ± 0.04 mM and 0.33 ± 0.01 mM and 0.42 ± 0.02 mM"},
      {"measurement": "kcat", "setting": "[2]", "value": "0.38 s⁻¹ and 0.34 s⁻¹"},
      {"measurement": "kcat/Km", "setting": "[2]", "value": "700 M⁻¹ s⁻¹ and 1020 M⁻¹ s⁻¹ and 810 M⁻¹ s⁻¹"}
    ]}
  ]
}
